Assays:
Assay in all cases: In-vitro kinetic assay with purified recombinant GCase
Format in all cases: biochemical
Details in all cases: other: 30° C., citrate-phosphate buffer 150 mM, pH 5.4, 0.25% taurodeoxycholate, GCase 2.5 nM
[1] = substrate: COc1cc(/N=N/c2ccc([N+](=O)[O-])cc2)c(OC)cc1/N=N/c1ccc(N(C)CCCC(=O)NCCCO[C@@H]2O[C@H](COCc3cn(CCNC(=O)CCC4=[N+]5C(=Cc6ccc(-c7ccc[nH]7)n6[B-]5(F)F)C=C4)nn3)[C@@H](O)[C@H](O)[C@H]2O)cc1
Procedure: (§1) In-vitro kinetic assay for substrate 1. Continuous assays were performed at 30° C. in citrate-phosphate buffer (150 mM; pH 5.4) containing 0.25% taurodeoxycholate. The concentrations of substrate 1 used in assays were 0.39, 0.78, 1.56, 3.13 6.25, 12.5, 25 and 50 μM. Reactions were initiated by the addition of purified recombinant GCase (2.5 nM, R&D Systems) and the reaction was monitored continuously over 1200 seconds to determine the initial rate of change of fluorescence. Standard curves were constructed using BODIPY® Fl-acid using the same buffer conditions. […] Assays were carried out in triplicate.
as §1, with “Comparative In-vitro” for “In-vitro”, “substrate 3 and 9b.” for “substrate 1.”, “of substrates 3 and 9b” for “of substrate 1”, “were 0.156, 0.313, 0.625, 1.25, 2.5, 5, 10,” for “were 0.39, 0.78, 1.56, 3.13 6.25, 12.5, 25”, “and 20” for “and 50”, “using TAMRA and BODIPY-576” for “using BODIPY® Fl-acid”

[2] = substrate: COc1cc(/N=N/c2ccc(C)cc2[N+](=O)[O-])c(C)cc1/N=N/c1ccc(N(C)CCCC(=O)NCCCO[C@@H]2O[C@H](COCc3cn(CCCNC(=O)[C@H](CCCCN(C)C)NC(=O)CCC4=[N+]5C(=Cc6c(C)cc(C)n6[B-]5(F)F)C=C4)nn3)[C@@H](O)[C@H](O)[C@H]2O)cc1
Procedure: as §1
as §1, with “Comparative In-vitro” for “In-vitro”, “substrate 3 and 9b.” for “substrate 1.”, “of substrates 3 and 9b” for “of substrate 1”, “were 0.156, 0.313, 0.625, 1.25, 2.5, 5, 10,” for “were 0.39, 0.78, 1.56, 3.13 6.25, 12.5, 25”, “and 20” for “and 50”, “using TAMRA and BODIPY-576” for “using BODIPY® Fl-acid”

[3] = substrate: COc1cc(/N=N/c2ccc([N+](=O)[O-])cc2)c(OC)cc1/N=N/c1ccc(N(C)CCCC(=O)NCCc2ccc(O[C@@H]3O[C@H](COCCCCn4cc(CNC(=O)[C@H](CCCCN(C)C)NC(=O)c5ccc(-c6c7ccc(=[N+](C)C)cc-7oc7cc(N(C)C)ccc67)c(C(=O)O)c5)nn4)[C@@H](O)[C@H](O)[C@H]3O)cc2)cc1
Procedure: as §1
as §1, with “Comparative In-vitro” for “In-vitro”, “substrate 3 and 9b.” for “substrate 1.”, “of substrates 3 and 9b” for “of substrate 1”, “were 0.156, 0.313, 0.625, 1.25, 2.5, 5, 10,” for “were 0.39, 0.78, 1.56, 3.13 6.25, 12.5, 25”, “and 20” for “and 50”, “using TAMRA and BODIPY-576” for “using BODIPY® Fl-acid”

B1: purified recombinant GCase (Homo sapiens) (protein)
chain: ARPCIPKSFGYSSVVCVCNATYCDSFDPPTFPALGTFSRYESTRSGRRMELSMGPIQANHTGTGLLLTLQPEQKFQKVKGFGGAMTDAAALNILALSPPAQNLLLKSYFSEEGIGYNIIRVPMASCDFSIRTYTYADTPDDFQLHNFSLPEEDTKLKIPLIHRALQLAQRPVSLLASPWTSPTWLKTNGAVNGKGSLKGQPGDIYHQTWARYFVKFLDAYAEHKLQFWAVTAENEPSAGLLSGYPFQCLGFTPEHQRDFIARDLGPTLANSTHHNVRLLMLDDQRLLLPHWAKVVLTDPEAAKYVHGIAVHWYLDFLAPAKATLGETHRLFPNTMLFASEACVGSKFWEQSVRLGSWDRGMQYSHSIITNLLYHVVGWTDWNLALNPEGGPNWVRNFVDSPIIVDITKDTFYKQPMFYHLGHFSKFIPEGSQRVGLVASQKNDLDAVALMHPDGSAVVVVLNRSSKDVPLTIKDPAVGFLETISPGYSIHTYLWRRQ
notes: purchased R&D Systems
kcat/Km [1]: 4350 M⁻¹ s⁻¹
kcat/Km [2]: 1300 ± 33 M⁻¹ s⁻¹
kcat/Km [3]: 22670 M⁻¹ s⁻¹
